Patent US20150010574A1

Legend:
Test in all cases: cell-based or functional assay
human IGF-1R (human) = human IGF-1R (human) (UniProt P08069)
human IGF-1 (human) = human IGF-1 (human) (UniProt P05019)
human IGF-2 (human) = human IGF-2 (human) (UniProt P01344)
Sequence of human IGF-2 (human) (P01344 25-91 limits assumed): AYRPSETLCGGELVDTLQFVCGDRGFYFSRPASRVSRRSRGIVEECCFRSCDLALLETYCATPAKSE

Sequence of human IGF-1R (human) (P08069 31-1367): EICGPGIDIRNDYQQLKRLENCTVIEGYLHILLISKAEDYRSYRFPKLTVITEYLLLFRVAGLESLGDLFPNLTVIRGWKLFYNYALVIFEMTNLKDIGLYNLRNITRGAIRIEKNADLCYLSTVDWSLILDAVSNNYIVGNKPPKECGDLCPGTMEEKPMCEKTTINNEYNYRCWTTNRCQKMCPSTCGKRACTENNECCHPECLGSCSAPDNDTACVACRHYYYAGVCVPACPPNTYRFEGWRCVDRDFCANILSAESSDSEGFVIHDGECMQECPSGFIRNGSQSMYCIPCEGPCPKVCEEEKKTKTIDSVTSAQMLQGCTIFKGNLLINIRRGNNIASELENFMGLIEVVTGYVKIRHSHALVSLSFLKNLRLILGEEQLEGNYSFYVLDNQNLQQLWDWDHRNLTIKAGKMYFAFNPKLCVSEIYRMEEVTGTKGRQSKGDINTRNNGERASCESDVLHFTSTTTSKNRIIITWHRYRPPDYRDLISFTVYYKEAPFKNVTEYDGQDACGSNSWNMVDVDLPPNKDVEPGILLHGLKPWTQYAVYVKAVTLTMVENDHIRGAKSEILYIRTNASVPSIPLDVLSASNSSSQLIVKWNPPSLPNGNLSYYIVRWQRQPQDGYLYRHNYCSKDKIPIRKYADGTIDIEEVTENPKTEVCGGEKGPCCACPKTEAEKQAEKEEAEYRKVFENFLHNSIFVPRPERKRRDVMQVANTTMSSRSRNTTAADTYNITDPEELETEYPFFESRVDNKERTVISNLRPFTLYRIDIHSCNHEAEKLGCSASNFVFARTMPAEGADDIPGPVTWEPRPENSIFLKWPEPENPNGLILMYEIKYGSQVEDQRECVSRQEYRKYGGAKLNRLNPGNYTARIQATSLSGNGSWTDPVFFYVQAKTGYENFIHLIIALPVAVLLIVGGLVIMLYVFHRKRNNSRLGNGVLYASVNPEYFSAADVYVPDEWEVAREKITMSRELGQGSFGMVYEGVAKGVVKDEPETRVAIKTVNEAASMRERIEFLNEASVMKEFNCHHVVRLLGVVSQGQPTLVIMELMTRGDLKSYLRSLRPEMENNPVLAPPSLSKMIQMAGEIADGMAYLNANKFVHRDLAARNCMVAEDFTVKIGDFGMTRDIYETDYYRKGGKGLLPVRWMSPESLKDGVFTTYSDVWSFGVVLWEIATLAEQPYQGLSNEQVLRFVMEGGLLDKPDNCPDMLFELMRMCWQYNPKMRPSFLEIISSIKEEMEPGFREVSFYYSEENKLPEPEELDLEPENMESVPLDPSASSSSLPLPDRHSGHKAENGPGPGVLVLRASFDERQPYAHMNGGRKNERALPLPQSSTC
Sequence of human IGF-1 (human) (P05019 49-118): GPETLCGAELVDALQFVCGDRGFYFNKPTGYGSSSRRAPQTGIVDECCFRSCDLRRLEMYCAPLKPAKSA

Substance | % Remaining Phosphorylation at 15 µg/mL (100 nM) Inhibitor; IGF-1 (20 ng/mL) induced IGF-1R phosphorylation (human IGF-1R (human)) | % Remaining Phosphorylation at 15 µg/mL (100 nM) Inhibitor; IGF-2 (100 ng/mL) induced IGF-1R phosphorylation (human IGF-1R (human)) | % Remaining Phosphorylation at 15 µg/mL (100 nM) Inhibitor; human serum (20%) induced IGF-1R phosphorylation (human IGF-1R (human)) | IC50 of IGF-1 (20 ng/mL) induced IGF-1R phosphorylation, cell based ELISA (human IGF-1R (human)) | IC50 of IGF-2 (100 ng/mL) induced IGF-1R phosphorylation, cell based ELISA (human IGF-1R (human)) | IC50 of human serum (20%) induced IGF-1R phosphorylation, cell based ELISA (human IGF-1R (human)) | % Remaining Phosphorylation at 15 µg/mL (100 nM) Inhibitor; IGF-1 (20 ng/mL) induced IGF-1R phosphorylation (human IGF-1 (human)) | % Remaining Phosphorylation at 15 µg/mL (100 nM) Inhibitor; IGF-2 (100 ng/mL) induced IGF-1R phosphorylation (human IGF-2 (human)) | % Remaining Phosphorylation at 15 µg/mL (100 nM) Inhibitor; IGF-2 (100 ng/mL) induced IR-A phosphorylation (human IGF-2 (human)) | IC50 of IGF-2 (100 ng/mL) induced IGF-1R phosphorylation, cell based ELISA (human IGF-2 (human)) | IC50 of IGF-2 (100 ng/mL) induced IR-A phosphorylation, cell based ELISA (human IGF-2 (human))
IGF-1R antibody αIR-3 (Calbiochem, No. GR11L) | 35% | 76% | 120% | 1.16 µg/mL | > 15 µg/mL | > 15 µg/mL | – | – | – | – | –
Control IgG (antibody) | – | – | – | – | – | – | 108% | 108% | 109% | > 15 µg/mL | > 15 µg/mL
